Where no end group is shown, it is not given here.
B8: BRD3(2), second bromodomain of BRD3 (domain or fragment, human)
chain: GKLSEHLRYCDSILREMLSKKHAAYAWPFYKPVDAEALELHDYHDIIKHPMDLSTVKRKMDGREYPDAQGFAADVRLMFSNCYKYNPPDHEVVAMARKLQDVFEMRFAKMP
notes: BRD3, human, second bromodomain; the crystallised construct may differ; source: E. coli BL21(DE3), purified (Ni-NTA, TEV, SEC)
B10: CREBBP bromodomain (domain or fragment, human)
chain: RKKIFKPEELRQALMPTLEALYRQDPESLPFRQPVDPQLLGIPDYFDIVKNPMDLSTIKRKLDTGQYQEPWQYVDDVWLMFNNAWLYNRKTSRVYKFCSKLAEVFEQEIDPVMQSLG
notes: the crystallised construct may differ; also called CBP; KAT3A; source: E. coli BL21(DE3), purified (Ni-NTA, TEV, SEC)

Columns and labels:
Conditions in all cases: both partners purified
[1] = target: FALZ bromodomain (human, UniProt Q12830 2914-3037); assay: ITC; peptide (mM stock) titrated into bromodomain (about 50 μM), by the concentrations in the tables; 10 or 15°C, 50 mM HEPES pH 7.5, 150 mM NaCl; single binding site model
[2] = target: B10; assay: as above
[3] = target: T1, H3K9 peptide KQTARKacSTGGKY (human, acetyl-lysine at K9 (residue 6 of the peptide)); assay: as above
T1 construct: histone H3, human; source: synthetic peptide

[4] = target: T2, H3K14 peptide KSTGGKacAPRKQY (human, acetyl-lysine at K14 (residue 6 of the peptide)); assay: as above
T2 construct: histone H3, human; source: synthetic peptide

[5] = target: T3, EP300 bromodomain (human, UniProt Q09472 1040-1161); assay: as above
T3 construct: the crystallised construct may differ; also called KAT3B; source: E. coli BL21(DE3), purified (Ni-NTA, TEV, SEC)
T3 sequence: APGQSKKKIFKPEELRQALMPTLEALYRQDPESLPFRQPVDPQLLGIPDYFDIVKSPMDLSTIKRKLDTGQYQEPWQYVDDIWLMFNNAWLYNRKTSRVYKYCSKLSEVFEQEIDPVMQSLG

[6] = target: T4, H4K12/16/20 peptide GKacGGAKacRHRKacV (human, acetyl-lysine at K12, K16 and K20 (residues 2, 6 and 10 of the peptide)); assay: ITC; as a1; rows with N of about 0.5 or 0.25: two or more bromodomains on one peptide, apparent binding constants, events not deconvoluted
T4 construct: histone H4, human; source: synthetic peptide

[7] = target: FALZ bromodomain (human, UniProt Q12830 2914-3037); assay: ITC; peptide (mM stock) titrated into bromodomain (about 50 μM), by the concentrations in the tables; 10 or 15°C, 50 mM HEPES pH 7.5, 150 mM NaCl; single binding site model; remark: listed apart in the source
[8] = target: B8; assay: as above
[9] = target: T5, H4K8 peptide RGKGGKacGLGKGY (human, acetyl-lysine at K8 (residue 6 of the peptide)); assay: as above
T5 construct: histone H4, human; source: synthetic peptide

[10] = target: T2, H3K14 peptide KSTGGKacAPRKQY; assay: as above; remark: listed apart in the source

B1: H4K5 peptide SGRGKacGGKGLY (peptide)
peptide: SGRGK(Ac)GGKGLY
notes: histone H4, human; source: synthetic peptide
[1]
  Kd: 175 ± 13.3 µM
  stoichiometry N: 1 ± 0.17

B2: H4K44 peptide RRGGVKacRISGLY (peptide)
peptide: RRGGVK(Ac)RISGLY
notes: as for B1
[2]
  Kd: 25.3 ± 0.6 µM
  stoichiometry N: 1 ± 0.099

B3: CECR2 bromodomain (domain or fragment)
chain: not shown
notes: CECR2, human, bromodomain; the crystallised construct may differ; source: E. coli BL21(DE3), purified (Ni-NTA, TEV, SEC)
[3]
  Kd: 189 ± 11.6 µM
[4]
  Kd: 43.9 ± 0.8 µM

B4: H3K56 peptide GTVALREIRRYQKacS (peptide)
peptide: GTVALREIRRYQK(Ac)S
notes: histone H3, human; source: synthetic peptide
[5]
  Kd: 13.4 ± 0.5 µM
  stoichiometry N: 0.98 ± 0.009
[2]
  Kd: 21.3 ± 1.4 µM
  stoichiometry N: 0.96 ± 0.025

B5: H2BK85 peptide AHYNKacRSTITSRE (peptide)
peptide: AHYNK(Ac)RSTITSRE
notes: histone H2B, human; source: synthetic peptide
[2]
  Kd: 66.2 ± 3.8 µM
  stoichiometry N: 0.98 ± 0.059

B6: H3K36 peptide ATGGVKacKPHRY (peptide)
peptide: ATGGVK(Ac)KPHRY
notes: histone H3, human; the last Y is Y41 of H3; source: synthetic peptide
[5]
  stoichiometry N: 1 ± 0.044
[2]
  Kd: 71.4 ± 1 µM
  stoichiometry N: 1

B7: H3K56 peptide IRRYQKacSTELLY (peptide)
peptide: IRRYQK(Ac)STELLY
notes: as for B4
[2]
  Kd: 13.8 ± 0.4 µM
  stoichiometry N: 0.97 ± 0.013

## B8
[6]
  Kd: 61.3 ± 1.9 µM

B9: H4K44 peptide GGVKacRISGLI (peptide)
peptide: GGVK(Ac)RISGLI
notes: as for B1
[5]
  Kd: 132 ± 6.3 µM
  stoichiometry N: 0.97 ± 0.088
[2]
  Kd: 82 ± 3.8 µM
  stoichiometry N: 1.06 ± 0.01

## RRRRRK(Ac)RRRRRY [poly-R peptide RRRRRKacRRRRRY]
[7]
  Kd: 3.1 ± 0.1 µM
  stoichiometry N: 1

## B10
[4]
  Kd: 734 ± 90.6 µM

B11: H3K18 peptide GKAPRKacQLATKY (peptide)
peptide: GKAPRK(Ac)QLATKY
notes: as for B4
[8]
  Kd: 67.1 ± 4.5 µM
  stoichiometry N: 1.06 ± 0.068

B12: KIAA1240 bromodomain (domain or fragment, human)
chain: MEDQEENTLRELRLFLRDVTKRLATDKRFNIFSKPVDIEEVSDYLEVIKEPMDLSTVITKIDKHNYLTAKDFLKDIDLICSNALEYNPDKDPGDKIIRHRACTLKDTAHAIIAAELDPEFNKLCEEIKEARIKRG
notes: KIAA1240 protein, human, bromodomain; the crystallised construct may differ; also called ATAD2B; source: E. coli BL21(DE3), purified (Ni-NTA, TEV, SEC)
[9]
  Kd: 150 ± 6.4 µM

B13: PCAF bromodomain (domain or fragment, human)
chain: GKEKSKEPRDPDQLYSTLKSILQQVKSHQSAWPFMEPVKRTEAPGYYEVIRFPMDLKTMSERLKNRYYVSKKLFMADLQRVFTNCKEYNPPESEYYKCANILEKFFFSKIKEAGLID
notes: P300/CBP-associated factor, human, bromodomain; the crystallised construct may differ; also called KAT2B; source: E. coli BL21(DE3), purified (Ni-NTA, TEV, SEC)
[10]
  Kd: 188 ± 14.6 µM

Reference: PMC3326523 (Cell, 2012)
